Experimental data taken from patent US20230151095A1 (published 2023).
Changes are numbered by the printed parent chain.

B1: XENP41025 (antibody)
chain 1: EVQLLESGGGLVQPGGSLRLSCAVSGFSLSSYGVIWVRQAPGKGLEYVSWVSSGGSTNYASSVKGRFTISRDTSKNTVYLQMNSLRAEDTAVYFCARGATNSGTDIWGPGTLVTVSSASTKGPSVFPLAPSSKSTSGGTAALGCLVKDYFPEPVTVSWNSGALTSGVHTFPAVLQSSGLYSLSSVVTVPSSSLGTQTYICNVNHKPSDTKVDKKVEPKSCDKTHTCPPCPAPELLGGPSVFLFPPKPKDTLMISRTPEVTCVVVDVSHEDPEVKFNWYVDGVEVHNAKTKPREEEYNSTYRVVSVLTVLHQDWLNGKEYKCKVSNKALPAPIEKTISKAKGQPREPQVYTLPPSREEMTKNQVSLTCDVSGFYPSDIAVEWESDGQPENNYKTTPPVLDSDGSFFLYSKLTVDKSRWEQGDVFSCSVMHEALHNHYTQKSLSLSPGK
chain 2: EVQLLESGGGLVQPGGSLRLSCAVSGFSLSSYGVIWVRQAPGKGLEYVSWVSSGGSTNYASSVKGRFTISRDTSKNTVYLQMNSLRAEDTAVYFCARGATNSGTDIWGPGTLVTVSSGKPGSGKPGSGKPGSGKPGSDIVMTQSPSSLSASVGDRVTITCRASQSINSWLSWYQQKPGKPPKLLIYGASNLASGVPSRFKGSGSGTDFTLTISSLQPEDFATYYCQNNYGIIAAGATFGGGTKVEIKEPKSSDKTHTCPPCPAPELLGGPDVFLFPPKPKDTLMISRTPEVTCVVVDVSHEDPEVKFNWYVDGVEVHNAKTKPREEQYNSTYRVVSVLTVLHQDWLNGKEYKCKVSNKALPAPEEKTISKAKGQPREPQVYTLPPSREQMTKNQVKLTCLVKGFYPSDIAVEWESNGQPENNYKTTPPVLDSDGSFFLYSKLTVDKSRWQQGNVFSCSVMHEALHNHYTQKSLSLSPGK
chain 3: DIVMTQSPSSLSASVGDRVTITCRASQSINSWLSWYQQKPGKPPKLLIYGASNLASGVPSRFKGSGSGTDFTLTISSLQPEDFATYYCQNNYGIIAAGATFGGGTKVEIKRTVAAPSVFIFPPSDEQLKSGTASVVCLLNNFYPREAKVQWKVDNALQSGNSQESVTEQDSKDSTYSLSSTLTLSKADYEKHKVYACEVTHQGLSSPVTKSFNRGEC
B2: XENP41021 (antibody)
chain 1: B1 chain 1
chain 2: not shown
chain 3: B1 chain 3
B3: XENP41034 (antibody)
chain 1: B1 chain 1 with I332E
chain 2: B1 chain 2
chain 3: B1 chain 3
B4: XENP41028 (antibody)
chain 1: B1 chain 1 with S239D, I332E
chain 2: not shown
chain 3: B1 chain 3
B5: XENP41035 (antibody)
chain 1: B1 chain 1 with S239D
chain 2: B1 chain 2 with D271S
chain 3: B1 chain 3
B6: XENP41031 (antibody)
chain 1: B1 chain 1 with S239D, I332E
chain 2: B1 chain 2 with E364I
chain 3: B1 chain 3
B7: XENP41033 (antibody)
chain 1: B1 chain 1 with S239D
chain 2: B1 chain 2
chain 3: B1 chain 3

Target: CD16 (UniProt P08637 17-208)
Sequence (P08637 17-208): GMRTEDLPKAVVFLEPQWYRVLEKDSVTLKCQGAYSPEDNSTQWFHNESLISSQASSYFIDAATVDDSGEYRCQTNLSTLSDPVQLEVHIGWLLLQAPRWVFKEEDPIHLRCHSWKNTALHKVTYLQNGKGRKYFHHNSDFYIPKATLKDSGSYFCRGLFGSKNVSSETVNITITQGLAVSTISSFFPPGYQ

Binder | Kd [nM]
B1 | 136
B2 | 417
B3 | 64.6
B4 | 120
B5 | 100
B6 | 55.2
B7 | 59.9
